Assay in all cases: SPR (Biacore); KD of H240-Kn061/H240-Hl071/L73-k0 divided by KD of the variant
The target of assay [1] is T1, FcγRIIIa V extracellular domain with C-terminal His tag (human, UniProt P08637 17-208).
T1 construct: extracellular domain; Soluble receptor, V158 allotype; also called FcgRIIIa V; FcgRIIIaV; not shown: His tag at the C terminus
The method, then:
(§1) The antibodies were assessed for the binding to each FcgR. […] The resultant value was defined as relative KD, and used as an assessment indicator.
(§2) Analysis of interaction between objective antibody and the FcγR was carried out using Biacore T100 (GE Healthcare), Biacore T200, Biacore A100, and Biacore 4000. HBS-EP+ (GE Healthcare) was used as the running buffer, and the measurement temperature was set to 25° C. Chips produced by immobilizing the antigen peptide by the amine coupling method to a Series S sensor Chip CM5 (GE Healthcare), chips produced by allowing preliminarily biotinylated antigen peptides to interact with and immobilize onto a Series S Sensor Chip SA (certified) (GE Healthcare), chips produced by immobilizing Protein L (ACTIGEN, BioVision) to Series S Sencor Chip CM5 (GE Healthcare), or chips produced by immobilizing Protein A/G (Thermo Scientific) to Series S Sencor Chip CM5 (GE Healthcare) were used. Antibodies of interest were captured onto these chips, and allowed to interact to each FcγR diluted with running buffer.

Assay [2] concerns the target T2, FcγRIIIa F extracellular domain with C-terminal His tag (human, UniProt P08637 17-208).
T2 construct: extracellular domain; Soluble receptor, F158 allotype; also called FcgRIIIa F; FcgRIIIaF; not shown: His tag at the C terminus
The method, then: as §1, §2

Assay [3] deals with T3, FcγRIIa R extracellular domain with C-terminal His tag (human, UniProt P12318 34-217).
T3 construct: extracellular domain; Soluble receptor, R131 allotype; also called FcgRIIa R; FcgRIIaR; not shown: His tag at the C terminus
T3 sequence (looked up): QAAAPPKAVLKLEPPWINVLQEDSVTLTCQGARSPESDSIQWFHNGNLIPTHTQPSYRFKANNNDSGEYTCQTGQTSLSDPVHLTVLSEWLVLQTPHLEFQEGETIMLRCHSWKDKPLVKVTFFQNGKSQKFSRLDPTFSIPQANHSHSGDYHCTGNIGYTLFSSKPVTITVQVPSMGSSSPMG
The method, then:
as §1, §2

Assay [4] concerns the target T4, FcγRIIa H extracellular domain with C-terminal His tag (human, UniProt P12318 34-217).
T4 construct: extracellular domain; Soluble receptor, H131 allotype; also called FcgRIIa H; FcgRIIaH; not shown: His tag at the C terminus
T4 sequence (looked up): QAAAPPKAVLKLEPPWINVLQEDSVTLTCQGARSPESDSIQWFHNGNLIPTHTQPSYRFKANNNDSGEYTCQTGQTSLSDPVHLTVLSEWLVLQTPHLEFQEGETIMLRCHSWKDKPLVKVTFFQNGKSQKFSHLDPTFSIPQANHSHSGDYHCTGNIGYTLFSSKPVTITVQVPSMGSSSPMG
On the procedure:
as §1, §2

In assay [5] the target is T5, FcγRIIb extracellular domain with C-terminal His tag (human, UniProt P31994 43-217).
T5 construct: extracellular domain; also called FcgRIIb; CD32B; not shown: His tag at the C terminus
T5 sequence (looked up): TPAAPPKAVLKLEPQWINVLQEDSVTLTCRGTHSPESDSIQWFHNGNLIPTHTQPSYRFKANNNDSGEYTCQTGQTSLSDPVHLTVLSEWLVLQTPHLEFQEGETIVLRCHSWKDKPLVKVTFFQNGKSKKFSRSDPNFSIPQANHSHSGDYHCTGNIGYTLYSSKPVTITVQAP
The method, then: as §1, §2

T2 sequence (P08637 17-208): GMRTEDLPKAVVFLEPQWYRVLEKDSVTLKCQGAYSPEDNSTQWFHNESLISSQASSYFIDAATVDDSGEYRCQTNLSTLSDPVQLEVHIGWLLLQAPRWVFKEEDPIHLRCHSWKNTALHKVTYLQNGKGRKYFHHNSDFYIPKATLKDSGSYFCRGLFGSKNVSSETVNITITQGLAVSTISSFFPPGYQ
T1 sequence (P08637 17-208 F176V): as the sequence (P08637 17-208) above, with F160V counted along it

B1: H240-Kn061/H240-Hl071/L73-k0 variant with F241L introduced into H chain H240-Hl071 (antibody, human IgG1, kappa)
heavy 1: QDQLVQSGAEVKKPGASVKVSCKASGFNIKDTYIQWVRQAPGQGLEWMGRIDPLRKQTKYREKFEGRVTITADTSTNTAYMELSSLRSEDTAVYYCVRSGREFDYWGQGTLVTVSSASTKGPSVFPLAPSSKSTSGGTAALGCLVKDYFPEPVTVSWNSGALTSGVHTFPAVLQSSGLYSLSSVVTVPSSSLGTQTYICNVNHKPSNTKVDKKVEPKSCDKTHTCPPCPAPEYYWGPSVFLFPPKPKDTLMISRTPEVTCVVVDVSDEDPEVKFNWYVDGVEVHNAKTKPREEQYNATYRVVSVLTVLHQDWLNGKEYKCKVSNKALPAPIEKTISKAKGQPREPQVCTLPPSRDELTKNQVSLWCLVKGFYPSDIAVEWESNGQPENNYKTTPPVLDSDGSFFLYSKLTVDKSRWQQGNVFSCSVMHEALHNHYTQKSLSLSP
heavy 2: QDQLVQSGAEVKKPGASVKVSCKASGFNIKDTYIQWVRQAPGQGLEWMGRIDPLRKQTKYREKFEGRVTITADTSTNTAYMELSSLRSEDTAVYYCVRSGREFDYWGQGTLVTVSSASTKGPSVFPLAPSSKSTSGGTAALGCLVKDYFPEPVTVSWNSGALTSGVHTFPAVLQSSGLYSLSSVVTVPSSSLGTQTYICNVNHKPSNTKVDKKVEPKSCDKTHTCPPCPAPELLGGPSVLLFPPKPKDTLMISRTPEVTCVVVDVSHEDPEVKFNWYVDGVEVHNAKTKPREEQYNSTYRVVSVLTVLHQDWLNGKEYKCKVSNDALPMPIEETISKAKGQPREPQVYTLPPSRCELTKNQVSLSCAVKGFYPSDIAVEWESNGQPENNYKTTPPVLDSDGSFFLVSKLTVDKSRWQQGNVFSCSVMHEALHNHYTQKSLSLSP
light: DIQMTQSPSSLSASVGDRVTITCRASQDIHKYIAWYQQKPGQAPRLLIQYTSTLQPGVPSRFSGSGSGTDYTFTISSLQPEDIATYYCLQYEQLRTFGGGTKVEIKRTVAAPSVFIFPPSDEQLKSGTASVVCLLNNFYPREAKVQWKVDNALQSGNSQESVTEQDSKDSTYSLSSTLTLSKADYEKHKVYACEVTHQGLSSPVTKSFNRGEC
notes: Point variant of the heterodimerized anti-epiregulin IgG1 template; also called H240-Hl071 F241L
B1: the “relative KD” value in assay [1] worked out at 1.3; in assay [2] it was 1.3; in assay [3], 1.2; in assay [4], 1.2; in assay [5], 0.8.

B2: H240-Kn061/H240-Hl071/L73-k0 variant with L235F introduced into H chain H240-Hl071 (antibody, human IgG1, kappa)
heavy 1: QDQLVQSGAEVKKPGASVKVSCKASGFNIKDTYIQWVRQAPGQGLEWMGRIDPLRKQTKYREKFEGRVTITADTSTNTAYMELSSLRSEDTAVYYCVRSGREFDYWGQGTLVTVSSASTKGPSVFPLAPSSKSTSGGTAALGCLVKDYFPEPVTVSWNSGALTSGVHTFPAVLQSSGLYSLSSVVTVPSSSLGTQTYICNVNHKPSNTKVDKKVEPKSCDKTHTCPPCPAPEYYWGPSVFLFPPKPKDTLMISRTPEVTCVVVDVSDEDPEVKFNWYVDGVEVHNAKTKPREEQYNATYRVVSVLTVLHQDWLNGKEYKCKVSNKALPAPIEKTISKAKGQPREPQVCTLPPSRDELTKNQVSLWCLVKGFYPSDIAVEWESNGQPENNYKTTPPVLDSDGSFFLYSKLTVDKSRWQQGNVFSCSVMHEALHNHYTQKSLSLSP
heavy 2: QDQLVQSGAEVKKPGASVKVSCKASGFNIKDTYIQWVRQAPGQGLEWMGRIDPLRKQTKYREKFEGRVTITADTSTNTAYMELSSLRSEDTAVYYCVRSGREFDYWGQGTLVTVSSASTKGPSVFPLAPSSKSTSGGTAALGCLVKDYFPEPVTVSWNSGALTSGVHTFPAVLQSSGLYSLSSVVTVPSSSLGTQTYICNVNHKPSNTKVDKKVEPKSCDKTHTCPPCPAPELFGGPSVFLFPPKPKDTLMISRTPEVTCVVVDVSHEDPEVKFNWYVDGVEVHNAKTKPREEQYNSTYRVVSVLTVLHQDWLNGKEYKCKVSNDALPMPIEETISKAKGQPREPQVYTLPPSRCELTKNQVSLSCAVKGFYPSDIAVEWESNGQPENNYKTTPPVLDSDGSFFLVSKLTVDKSRWQQGNVFSCSVMHEALHNHYTQKSLSLSP
light: DIQMTQSPSSLSASVGDRVTITCRASQDIHKYIAWYQQKPGQAPRLLIQYTSTLQPGVPSRFSGSGSGTDYTFTISSLQPEDIATYYCLQYEQLRTFGGGTKVEIKRTVAAPSVFIFPPSDEQLKSGTASVVCLLNNFYPREAKVQWKVDNALQSGNSQESVTEQDSKDSTYSLSSTLTLSKADYEKHKVYACEVTHQGLSSPVTKSFNRGEC
notes: Point variant of the heterodimerized anti-epiregulin IgG1 template; also called H240-Hl071 L235F
For B2, the “relative KD” value is 1.6 in assay [1]; 1.9 in assay [2]; 1.2 in assay [3]; 1.1 in assay [4]; 1 in assay [5].

B3: H240-Kn061/H240-Hl071/L73-k0 variant with F241M introduced into H chain H240-Hl071 (antibody, human IgG1, kappa)
heavy 1: QDQLVQSGAEVKKPGASVKVSCKASGFNIKDTYIQWVRQAPGQGLEWMGRIDPLRKQTKYREKFEGRVTITADTSTNTAYMELSSLRSEDTAVYYCVRSGREFDYWGQGTLVTVSSASTKGPSVFPLAPSSKSTSGGTAALGCLVKDYFPEPVTVSWNSGALTSGVHTFPAVLQSSGLYSLSSVVTVPSSSLGTQTYICNVNHKPSNTKVDKKVEPKSCDKTHTCPPCPAPEYYWGPSVFLFPPKPKDTLMISRTPEVTCVVVDVSDEDPEVKFNWYVDGVEVHNAKTKPREEQYNATYRVVSVLTVLHQDWLNGKEYKCKVSNKALPAPIEKTISKAKGQPREPQVCTLPPSRDELTKNQVSLWCLVKGFYPSDIAVEWESNGQPENNYKTTPPVLDSDGSFFLYSKLTVDKSRWQQGNVFSCSVMHEALHNHYTQKSLSLSP
heavy 2: QDQLVQSGAEVKKPGASVKVSCKASGFNIKDTYIQWVRQAPGQGLEWMGRIDPLRKQTKYREKFEGRVTITADTSTNTAYMELSSLRSEDTAVYYCVRSGREFDYWGQGTLVTVSSASTKGPSVFPLAPSSKSTSGGTAALGCLVKDYFPEPVTVSWNSGALTSGVHTFPAVLQSSGLYSLSSVVTVPSSSLGTQTYICNVNHKPSNTKVDKKVEPKSCDKTHTCPPCPAPELLGGPSVMLFPPKPKDTLMISRTPEVTCVVVDVSHEDPEVKFNWYVDGVEVHNAKTKPREEQYNSTYRVVSVLTVLHQDWLNGKEYKCKVSNDALPMPIEETISKAKGQPREPQVYTLPPSRCELTKNQVSLSCAVKGFYPSDIAVEWESNGQPENNYKTTPPVLDSDGSFFLVSKLTVDKSRWQQGNVFSCSVMHEALHNHYTQKSLSLSP
light: DIQMTQSPSSLSASVGDRVTITCRASQDIHKYIAWYQQKPGQAPRLLIQYTSTLQPGVPSRFSGSGSGTDYTFTISSLQPEDIATYYCLQYEQLRTFGGGTKVEIKRTVAAPSVFIFPPSDEQLKSGTASVVCLLNNFYPREAKVQWKVDNALQSGNSQESVTEQDSKDSTYSLSSTLTLSKADYEKHKVYACEVTHQGLSSPVTKSFNRGEC
notes: Point variant of the heterodimerized anti-epiregulin IgG1 template; also called H240-Hl071 F241M
Consider B3, for which the “relative KD” value is 1.3 in assay [1]; 1.3 in assay [2]; 1.3 in assay [3]; 1.1 in assay [4]; 0.9 in assay [5].

The values above are taken from patent US20150344570A1 (published 2015).
